Results from publication PMC9487752, “Novel mycoplasma nucleomodulin MbovP475 decreased cell viability by regulating expression of CRYAB and MCF2L2”.

Assays:
Experiment in all cases: Southwestern blot; no change vs WT; EMSA: LightShift kit binding buffer, 20 min, room temperature, 5% native PAGE; Southwestern: 2 ug protein on nitrocellulose renatured in TNED buffer, 20 pmol biotin DNA, 12 h, room temperature; SPR: Biacore, NTA chip (~100 RU protein), buffer not given
Conditions in all cases: protein: recombinant; tags: His (pET-30a); label: 5'-C6-biotin (both oligos by primer name); blunt
rMbovP475-265NQ266 = molecular target: T1, rMbovP475-265NQ266 (Mycoplasma bovis HB0801, UniProt A0A454AQS7 1-368, N265A;Q266A)
T1 sequence: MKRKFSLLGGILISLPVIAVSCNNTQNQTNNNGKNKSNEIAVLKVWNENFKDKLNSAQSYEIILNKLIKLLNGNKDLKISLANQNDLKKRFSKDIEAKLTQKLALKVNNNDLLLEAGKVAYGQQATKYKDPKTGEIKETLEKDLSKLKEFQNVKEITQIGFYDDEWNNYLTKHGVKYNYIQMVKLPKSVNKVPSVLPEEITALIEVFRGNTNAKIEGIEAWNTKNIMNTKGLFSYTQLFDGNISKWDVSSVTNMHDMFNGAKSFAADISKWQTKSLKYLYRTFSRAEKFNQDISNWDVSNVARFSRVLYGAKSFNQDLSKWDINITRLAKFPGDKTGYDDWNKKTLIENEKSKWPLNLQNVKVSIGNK

MbovP475∆DB2 = molecular target: T2, MbovP475∆DB2 (Mycoplasma bovis HB0801, UniProt A0A454AQS7 1-298+333-368, internal_change)
T2 sequence: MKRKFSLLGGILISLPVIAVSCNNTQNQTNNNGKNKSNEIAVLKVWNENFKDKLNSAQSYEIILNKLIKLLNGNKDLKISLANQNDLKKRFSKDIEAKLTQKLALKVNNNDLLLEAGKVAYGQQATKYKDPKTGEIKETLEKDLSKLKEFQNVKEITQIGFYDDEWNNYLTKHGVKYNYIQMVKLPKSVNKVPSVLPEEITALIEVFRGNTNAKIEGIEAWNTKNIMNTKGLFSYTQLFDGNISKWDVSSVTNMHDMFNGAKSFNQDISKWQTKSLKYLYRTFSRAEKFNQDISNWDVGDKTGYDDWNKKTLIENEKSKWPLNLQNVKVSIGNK

MbovP475∆DB3 = molecular target: T3, MbovP475∆DB3 (Mycoplasma bovis HB0801, UniProt A0A454AQS7 1-338)
T3 sequence: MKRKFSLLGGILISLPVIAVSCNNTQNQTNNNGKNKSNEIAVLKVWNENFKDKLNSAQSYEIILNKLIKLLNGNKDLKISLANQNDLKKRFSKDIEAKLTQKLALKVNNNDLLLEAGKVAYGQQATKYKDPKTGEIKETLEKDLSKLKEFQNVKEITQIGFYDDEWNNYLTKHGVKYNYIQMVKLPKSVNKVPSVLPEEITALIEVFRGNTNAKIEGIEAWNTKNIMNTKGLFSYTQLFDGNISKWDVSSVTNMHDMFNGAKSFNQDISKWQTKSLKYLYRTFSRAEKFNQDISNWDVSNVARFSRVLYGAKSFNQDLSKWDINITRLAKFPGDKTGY

Measured: binding result

B1: MCF2L2 promoter (+53 to +112) (dsDNA)
DNA 1: CAACTAACACTTTACGGGAGTGGGCACATCATTCCTGAATAAGGACACGCGCGTGCGCAC
DNA 2: GTGCGCACGCGCGTGTCCTTATTCAGGAATGATGTGCCCACTCCCGTAAAGTGTTAGTTG
binds: all assays above

B2: CRYAB promoter (+108 to +167) (dsDNA)
DNA 1: TCTCTTCCCAGCTTCTACTTCCCTGAGCCCCTTCTACCTTCGGCCGCCCTCATTTCTGCG
DNA 2: CGCAGAAATGAGGGCGGCCGAAGGTAGAAGGGGCTCAGGGAAGTAGAAGCTGGGAAGAGA
binds: all assays above
